Test results: USRE47150 (Bayer, dated 2018)
Substitutions are numbered along the chain they refer to. Names may count otherwise.

B1: 4B7 HC D62Q+H107M+Y112D/LC D33F+N35I (Fab, V domains shown)
VH: QVQLQQSGPGLVKPSQTLSLTCAISGDSVSSNSAAWSWIRQSPGRGLEWLGIIYKRSKWYNQYAVSVKSRITINPDTSKNQFSLQLNSVTPEDTAVYYCARWHSDKMWGFDDWGQGTLVTVSS
VL: DIVMTQSPLSLPVTPGEPASISCRSSQSLVFSFGITYLNWYLQKPGQSPQLLIYKGSNRASGVPDRFSGSGSGTDFTLKISRVEAEDVGVYYCQQYDSYPLTFGQGTKVEIKR
B2: 4B7 HC D62Q+Y112D/LC S32R+D33F+N35I (Fab, V domains shown)
VH: B1 VH with M107H
VL: B1 VL with S32R
B3: 4B7 HC D62R+H107M+Y112D/LC D33F+N35I (Fab, V domains shown)
VH: B1 VH with Q62R
VL: B1 VL
B4: 4B7 HC D62R+H107M+Y112D/LC F31I+D33R+N35I (Fab, V domains shown)
VH: B1 VH with Q62R
VL: B1 VL with F31I, F33R
B5: 4B7 HC D62R+H107M+Y112D/LC F31I+S32R+D33F+N35I+D97T (Fab, V domains shown)
VH: B1 VH with Q62R
VL: B1 VL with F31I, S32R, D97T
B6: 4B7 HC D62R+H107M+Y112D/LC F31M+D33F (Fab, V domains shown)
VH: B1 VH with Q62R
VL: B1 VL with F31M, I35N
B7: 4B7 HC D62R+H107M+Y112D/LC F31M+D33F+N35I (Fab, V domains shown)
VH: B1 VH with Q62R
VL: B1 VL with F31M
B8: 4B7 HC D62R+H107M+Y112D/LC N35T+D97T (Fab, V domains shown)
VH: B1 VH with Q62R
VL: B1 VL with F33D, I35T, D97T
B9: 4B7 HC D62R+H107M+Y112D/LC S32R+D33F+N35I (Fab, V domains shown)
VH: B1 VH with Q62R
VL: B1 VL with S32R
B10: 4B7 HC D62R+Y112D/LC S32R+D33F+N35I (Fab, V domains shown)
VH: B1 VH with Q62R, M107H
VL: B1 VL with S32R
B11: 4B7 HC D62S+H107M+Y112D/LC S32R+D33F+N35I (Fab, V domains shown)
VH: B1 VH with Q62S
VL: B1 VL with S32R
B12: 4B7 HC N32D+D62K+Y112D/LC S32R+D33F+N35I+D97T (Fab, V domains shown)
VH: B1 VH with N32D, Q62K, M107H
VL: B1 VL with S32R, D97T
B13: 4B7 HC N32D+D62Q+H107M+Y112D/LC D33R+N35T (Fab, V domains shown)
VH: B1 VH with N32D
VL: B1 VL with F33R, I35T
B14: 4B7 HC N32D+D62Q+H107M+Y112D/LC F31I+S32R+D33R+N35I+D97T (Fab, V domains shown)
VH: B1 VH with N32D
VL: B1 VL with F31I, S32R, F33R, D97T
B15: 4B7 HC N32D+D62Q+H107M+Y112D/LC F31M+D33F+N35T+Y37F (Fab, V domains shown)
VH: B1 VH with N32D
VL: B1 VL with F31M, I35T, Y37F
B16: 4B7 HC N32D+D62Q+H107M+Y112D/LC F31M+S32R+D33F+N35I+D97T (Fab, V domains shown)
VH: B1 VH with N32D
VL: B1 VL with F31M, S32R, D97T
B17: 4B7 HC N32D+D62Q+H107M+Y112D/LC N35I (Fab, V domains shown)
VH: B1 VH with N32D
VL: B1 VL with F33D
B18: 4B7 HC N32D+D62Q+H107M+Y112D/LC S32R+D33F (Fab, V domains shown)
VH: B1 VH with N32D
VL: B1 VL with S32R, I35N
B19: 4B7 HC N32D+D62Q+H107M+Y112D/LC S32R+D33F+N35I (Fab, V domains shown)
VH: B1 VH with N32D
VL: B1 VL with S32R
B20: 4B7 HC N32D+D62Q+H107M+Y112D/LC S32R+D33R (Fab, V domains shown)
VH: B1 VH with N32D
VL: B1 VL with S32R, F33R, I35N
B21: 4B7 HC N32D+D62Q+H107M+Y112D/LC S32R+N35T (Fab, V domains shown)
VH: B1 VH with N32D
VL: B1 VL with S32R, F33D, I35T
B22: 4B7 HC N32D+D62Q+Y112D/LC F31I+D33F+N35I+D97T (Fab, V domains shown)
VH: B1 VH with N32D, M107H
VL: B1 VL with F31I, D97T
B23: 4B7 HC N32D+D62Q+Y112D/LC F31I+D33F+N35I+K44R (Fab, V domains shown)
VH: B1 VH with N32D, M107H
VL: B1 VL with F31I, K44R
B24: 4B7 HC N32D+D62Q+Y112D/LC F31I+D33F+N35I+L42Q (Fab, V domains shown)
VH: B1 VH with N32D, M107H
VL: B1 VL with F31I, L42Q
B25: 4B7 HC N32D+D62Q+Y112D/LC F31I+D33F+N35I+S98H (Fab, V domains shown)
VH: B1 VH with N32D, M107H
VL: B1 VL with F31I, S98H
B26: 4B7 HC N32D+D62Q+Y112D/LC F31I+D33F+N35I+T36N (Fab, V domains shown)
VH: B1 VH with N32D, M107H
VL: B1 VL with F31I, T36N
B27: 4B7 HC N32D+D62Q+Y112D/LC F31M+S32R+D33F+N35I (Fab, V domains shown)
VH: B1 VH with N32D, M107H
VL: B1 VL with F31M, S32R
B28: 4B7 HC N32D+D62Q+Y112D/LC S32R+D33F+N35I+D97T (Fab, V domains shown)
VH: B1 VH with N32D, M107H
VL: B1 VL with S32R, D97T
B29: 4B7 HC N32D+D62Q+Y112D/LC S32R+D33R+N35I (Fab, V domains shown)
VH: B1 VH with N32D, M107H
VL: B1 VL with S32R, F33R
B30: 4B7 HC N32D+D62Q+Y112D/LC S32R+D33R+N35I+D97T (Fab, V domains shown)
VH: B1 VH with N32D, M107H
VL: B1 VL with S32R, F33R, D97T
B31: 4B7 HC N32D+D62Q+Y112D/LC V30L+F31I+D33F+N35I (Fab, V domains shown)
VH: B1 VH with N32D, M107H
VL: B1 VL with V30L, F31I
B32: 4B7 HC N32D+D62R+H103D+H107M+Y112D/LC S32R (Fab, V domains shown)
VH: B1 VH with N32D, Q62R, H103D
VL: B1 VL with S32R, F33D, I35N
B33: 4B7 HC N32D+D62R+H103D+H107M+Y112D/LC S32R+N35T (Fab, V domains shown)
VH: B1 VH with N32D, Q62R, H103D
VL: B1 VL with S32R, F33D, I35T
B34: 4B7 HC N32D+D62R+H103D/LC F31I+D33R (Fab, V domains shown)
VH: B1 VH with N32D, Q62R, H103D, M107H, D112Y
VL: B1 VL with F31I, F33R, I35N
B35: 4B7 HC N32D+D62R+H107M+Y112D/LC D33F+N35T+Y37F (Fab, V domains shown)
VH: B1 VH with N32D, Q62R
VL: B1 VL with I35T, Y37F
B36: 4B7 HC N32D+D62R+H107M+Y112D/LC D33R (Fab, V domains shown)
VH: B1 VH with N32D, Q62R
VL: B1 VL with F33R, I35N
B37: 4B7 HC N32D+D62R+H107M+Y112D/LC D33R+N35I+D97T (Fab, V domains shown)
VH: B1 VH with N32D, Q62R
VL: B1 VL with F33R, D97T

How the values were obtained:
[1] = target: T1, human tissue factor pathway inhibitor (TFPI) (human, UniProt P10646 29-304, limits assumed); experiment: competitive ELISA
T1 construct: bought; also called hTFPI; human TFPI
T1 sequence (looked up): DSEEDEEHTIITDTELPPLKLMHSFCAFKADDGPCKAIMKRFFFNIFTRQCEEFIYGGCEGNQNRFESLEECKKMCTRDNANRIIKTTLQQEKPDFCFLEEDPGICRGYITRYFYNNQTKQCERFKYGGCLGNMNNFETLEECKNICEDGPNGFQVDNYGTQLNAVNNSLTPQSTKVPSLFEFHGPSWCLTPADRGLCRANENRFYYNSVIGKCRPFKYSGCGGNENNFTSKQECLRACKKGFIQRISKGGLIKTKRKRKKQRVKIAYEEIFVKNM

[2] = target: T2, mouse tissue factor pathway inhibitor (TFPI) (mouse, UniProt O54819 29-289, limits assumed); experiment: competitive ELISA
T2 construct: bought; also called mTFPI; murine TFPI
T2 sequence (looked up): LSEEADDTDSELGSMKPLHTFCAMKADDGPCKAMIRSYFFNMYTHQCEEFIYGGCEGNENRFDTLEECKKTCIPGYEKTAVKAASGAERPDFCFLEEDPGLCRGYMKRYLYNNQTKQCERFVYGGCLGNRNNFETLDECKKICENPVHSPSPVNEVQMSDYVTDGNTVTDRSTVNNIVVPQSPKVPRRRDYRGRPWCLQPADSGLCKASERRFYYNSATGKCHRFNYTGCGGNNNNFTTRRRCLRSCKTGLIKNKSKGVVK

| Binder | variant/HC_D62R [1] | variant/HC_D62R [2] | binding result [2] |
| --- | --- | --- | --- |
| B1 | 22.7 ratio | 31.7 ratio |  |
| B2 | 23.6 ratio | 38.1 ratio |  |
| B3 | 20 ratio | 36.6 ratio |  |
| B4 | 22 ratio | 35.4 ratio |  |
| B5 | 20.4 ratio | 18.2 ratio |  |
| B6 | 24.2 ratio | 31.3 ratio |  |
| B7 | 30.9 ratio | 47 ratio |  |
| B8 | 20.1 ratio | 19.4 ratio |  |
| B9 | 24.1 ratio | 50.3 ratio |  |
| B10 | 21.9 ratio | 39.9 ratio |  |
| B11 | 18.2 ratio | 31.7 ratio |  |
| B12 | 22.7 ratio | 38.8 ratio |  |
| B13 | 23.7 ratio | 18.8 ratio |  |
| B14 | 20.2 ratio | 11.5 ratio |  |
| B15 | 19.4 ratio | 35.3 ratio |  |
| B16 | 19 ratio | 12 ratio |  |
| B17 | 22.2 ratio | 16.4 ratio |  |
| B18 | 23.2 ratio | 16.9 ratio |  |
| B19 | 24.7 ratio | 46.6 ratio |  |

| Binder | variant/HC_D62R [1] | variant/HC_D62R [2] | binding result [2] |
| --- | --- | --- | --- |
| B20 | 24.9 ratio | 24.7 ratio |  |
| B21 | 25 ratio | 27.1 ratio |  |
| B22 | 14.4 ratio | 4.6 ratio |  |
| B23 | 22.8 ratio | 18.5 ratio |  |
| B24 | 21.4 ratio | 16.7 ratio |  |
| B25 | 13.5 ratio |  | no binding |
| B26 | 27.3 ratio | 46.3 ratio |  |
| B27 | 20.8 ratio | 15.8 ratio |  |
| B28 | 23.2 ratio | 40 ratio |  |
| B29 | 21.4 ratio | 23.5 ratio |  |
| B30 | 17.2 ratio | 13.4 ratio |  |
| B31 | 22.9 ratio | 24.6 ratio |  |
| B32 | 17.7 ratio | 16 ratio |  |
| B33 | 14 ratio | 18.4 ratio |  |
| B34 | 13.6 ratio | 14.6 ratio |  |
| B35 | 35.7 ratio | 57.5 ratio |  |
| B36 | 25.3 ratio | 20.3 ratio |  |
| B37 | 29.1 ratio | 28.1 ratio |  |
